Laboratory results: PMC3621891, “Structural Insights into Omega-Class Glutathione Transferases: A Snapshot of Enzyme Reduction and Identification of a Non-Catalytic Ligandin Site” (PLoS ONE, 2013)

Biological target: the molecule itself
Test: crystal structure; hanging-drop vapour diffusion at 4°C, 2.2 M ammonium sulfate, 100 mM sodium acetate pH 4.25 and 4.75; crystals soaked with 4NPG (one also with GSH); one protomer in the asymmetric unit, dimer by crystallographic two-fold

B1: hGSTO1-1 C32A mutant (human omega-class glutathione transferase 1-1, active-site mutant) (enzyme)
chain: MSGESARSLGKGSAPPGPVPEGSIRIYSMRFAPFAERTRLVLKAKGIRHEVININLKNKPEWFFKKNPFGLVPVLENSQGQLIYESAITCEYLDEAYPGKKLLPDDPYEKACQKMILELFSKVPSLVGSFIRSQNKEDYAGLKEEFRKEFTKLEEVLTNKKTTFFGGNSISMIDYLIWPWFERLEAMKLNECVDHTPKLKLWMAAMKEDPTVSALLTSEKDWQGFLELYLQNSPEACDYGL
notes: human glutathione transferase omega 1 (hGSTO1), C32A active-site mutant; after cleavage no additional N-terminal residues; residues 4 to 241 are seen in the final model; Homodimer; the dimer is produced by two-fold crystallographic symmetry (one protomer in the asymmetric unit); Crystals held GSSG, 4NPG, DTT and sulfate; source: E. coli BL21 (DE3), purified (Ni-NTA agarose, cleavage by …)
binding result: binds
